Measured values from US20240384250A1, “FIBROBLAST GROWTH FACTOR 23 MODULATING COMPOUNDS” (THE UAB RESEARCH FOUNDATION, priority 2021, published 2024).

Target: T1, FGF23/FGFR4 binding (Homo sapiens, UniProt P22455+Q9GZV9, R179Q)
T1 construct: Fc-FGFR4 protein (human ectodomain) was immobilized; purchased R&D Systems human FGF23 2604FG025/CF; human FGFR4 685FR050
T1 sequence (Q9GZV9 25-251 R179Q): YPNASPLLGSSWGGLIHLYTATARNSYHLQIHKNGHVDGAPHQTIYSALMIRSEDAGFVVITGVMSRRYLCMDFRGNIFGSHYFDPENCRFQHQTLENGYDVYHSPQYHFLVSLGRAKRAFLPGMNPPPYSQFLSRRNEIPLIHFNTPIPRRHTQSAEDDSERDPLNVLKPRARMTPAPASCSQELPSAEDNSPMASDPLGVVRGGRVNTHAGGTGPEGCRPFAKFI
T1 sequence (P22455 22-369 limits assumed): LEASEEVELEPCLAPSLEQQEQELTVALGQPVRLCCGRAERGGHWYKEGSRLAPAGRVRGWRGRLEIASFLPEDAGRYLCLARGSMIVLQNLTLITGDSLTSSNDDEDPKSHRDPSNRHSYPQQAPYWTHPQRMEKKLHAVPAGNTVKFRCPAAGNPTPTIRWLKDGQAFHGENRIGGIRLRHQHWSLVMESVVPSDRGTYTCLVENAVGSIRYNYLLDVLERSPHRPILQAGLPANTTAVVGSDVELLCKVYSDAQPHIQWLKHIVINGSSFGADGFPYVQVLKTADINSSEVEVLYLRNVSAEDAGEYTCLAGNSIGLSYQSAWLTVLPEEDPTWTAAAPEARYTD
Assay: Surface plasmon resonance, FGF23 binding to surface FGFR4 with heparin or sKL in solution
Experimental: For the direct quantitative analysis of label-free molecular interactions in real time, surface plasmon resonance studies were conducted using BIAcore T200 and T200 evaluation software (28975001, Cytiva). Sensor SA (BR100398) and CMS chips (BR100399) were from Cytiva. For the preparation of heparin chips, heparin (2 mg) and amine-PEG3-Biotin (2 mg, 21347, Pierce) were dissolved in 200 μl of H2O and 10 mg of NaCNBH3 was added. The reaction mixture was heated at 70° C. for 24 hours; an additional 10 mg of NaCNBH3 was added; and the reaction was heated at 70° C. for another 24 hours. After cooling to room temperature, the mixture was desalted with the spin column (3000 MWCO). Biotinylated heparin was collected, freeze dried, and used for chip preparation. Biotinylated heparin was immobilized to streptavidin chips according to the manufacturer's protocol. In brief, 20 μl of biotinylated heparin solution (0.1 mg/ml) in HBS-P running buffer (0.01 M N-2-hydroxyethylpiperazine-N′-2-ethanesulfonic acid, 0.15 M NaCl, 0.005% surfactant P20 [pH7.4]; BR100368, Cytiva) was injected over flow cell 2 of the streptavidin chip at a flow rate of 10 μl/min. The successful immobilization of heparin was confirmed by the observation of an approximately 200-resonance unit increase in the sensor chip. […] The response was monitored as a function of time (sensorgram) at 25° C.

sKL's effect on increasing FGFR4 affinity for FGF23 relative to heparin: 4- to 5 fold
increase in FGF23/FGFR4 binding affinity (heparin or sKL in solution): approximately 13 fold
B1: sKL: recombinant soluble α-klotho ectodomain, mouse aa 35-982 and human aa 34-981, FLAG- or Strep/His-tagged, purified from HEK293 cells (protein)
chain: EPGDGAQTWARFSRPPAPEAAGLFQGTFPDGFLWAVGSAAYQTEGGWQQHGKGASIWDTFTHHPLAPPGDSRNASLPLGAPSPLQPATGDVASDSYNNVFRDTEALRELGVTHYRFSISWARVLPNGSAGVPNREGLRYYRRLLERLRELGVQPVVTLYHWDLPQRLQDAYGGWANRALADHFRDYAELCFRHFGGQVKYWITIDNPYVVAWHGYATGRLAPGIRGSPRLGYLVAHNLLLAHAKVWHLYNTSFRPTQGGQVSIALSSHWINPRRMTDHSIKECQKSLDFVLGWFAKPVFIDGDYPESMKNNLSSILPDFTESEKKFIKGTADFFALCFGPTLSFQLLDPHMKFRQLESPNLRQLLSWIDLEFNHPQIFIVENGWFVSGTTKRDDAKYMYYLKKFIMETLKAIKLDGVDVIGYTAWSLMDGFEWHRGYSIRRGLFYVDFLSQDKMLLPKSSALFYQKLIEKNGFPPLPENQPLEGTFPCDFAWGVVDNYIQVDTTLSQFTDLNVYLWDVHHSKRLIKVDGVVTKKRKSYCVDFAAIQPQIALLQEMHVTHFRFSLDWALILPLGNQSQVNHTILQYYRCMASELVRVNITPVVALWQPMAPNQGLPRLLARQGAWENPYTALAFAEYARLCFQELGHHVKLWITMNEPYTRNMTYSAGHNLLKAHALAWHVYNEKFRHAQNGKISIALQADWIEPACPFSQKDKEVAERVLEFDIGWLAEPIFGSGDYPWVMRDWLNQRNNFLLPYFTEDEKKLIQGTFDFLALSHYTTILVDSEKEDPIKYNDYLEVQEMTDITWLNSPSQVAVVPWGLRKVLNWLKFKYGDLPMYIISNGIDDGLHAEDDQLRVYYMQNYINEALKAHILDGINLCGYFAYSFNDRTAPRFGLYRYAADQFEPKASMKHYRKIIDSNGFPGPETLERFCPEEFTVCTECSFFHTRKS
modifications: left off: small tags and cut ends
notes: recombinant soluble α-klotho ectodomain, mouse aa 35-982 and human aa 34-981, FLAG- or Strep/His-tagged, purified from HEK293 cells
